Experimental data published in patent US20080152587A1 (Amgen, published 2008).

T1: mouse uPAR on the surface of NCTC L929 cells (mouse, UniProt P35456 24-298)
T1 construct: whole, on cells; also called cell surface mouse uPAR
T1 sequence (looked up): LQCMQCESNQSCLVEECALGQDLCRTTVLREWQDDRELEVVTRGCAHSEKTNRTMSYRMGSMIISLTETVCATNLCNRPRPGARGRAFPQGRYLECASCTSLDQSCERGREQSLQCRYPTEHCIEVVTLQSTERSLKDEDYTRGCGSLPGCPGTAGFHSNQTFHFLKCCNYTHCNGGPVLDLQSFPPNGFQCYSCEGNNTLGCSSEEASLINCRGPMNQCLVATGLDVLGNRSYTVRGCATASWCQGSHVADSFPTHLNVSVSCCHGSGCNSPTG

T2: murine uPAR (form not stated) (mouse, UniProt P35456 24-297, limits assumed)
T2 construct: also called mouse uPAR
T2 sequence (looked up): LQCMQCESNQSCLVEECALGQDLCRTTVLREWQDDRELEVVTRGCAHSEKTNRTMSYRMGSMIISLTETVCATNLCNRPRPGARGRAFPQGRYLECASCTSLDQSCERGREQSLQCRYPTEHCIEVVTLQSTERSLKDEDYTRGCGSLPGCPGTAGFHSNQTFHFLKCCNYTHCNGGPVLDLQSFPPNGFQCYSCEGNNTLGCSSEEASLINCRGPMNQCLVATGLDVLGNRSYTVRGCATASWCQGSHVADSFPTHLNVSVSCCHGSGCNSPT

T3: human Ly6e with a myc tag, expressed in HEK293T cells (human, UniProt Q16553 21-101)
T3 construct: whole, on cells; not shown: myc tag fused on the molecule
T3 sequence (looked up): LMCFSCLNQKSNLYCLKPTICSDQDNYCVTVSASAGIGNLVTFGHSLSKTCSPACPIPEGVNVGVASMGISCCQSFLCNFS


Legend:
[1] = biological target: T1, mouse uPAR on the surface of NCTC L929 …; experiment: FACS, NCTC L929 mouse cells, mAb 6.25 µg/ml
Experimental: (§1) To make the mouse cross-reactivity results conclusive, direct binding of the mAbs to cell-bound mouse uPAR was measured using FACS analysis. The mouse cell line derived from the connective tissue, NCTC L929, was employed for FACS analysis. The harvested cells were resuspended at 50,000 cells/well using FACS buffer into a V-bottom plate which was put on ice. […] After washing, Cy5-labeled goat anti-human IgG Fc at 5 μg/ml and 7AAD at 5 μg/ml was added. The mixtures were incubated for 15 min on ice, washed and resuspended in cold FACS buffer for FACS analysis.

[2] = biological target: T4, soluble recombinant human uPAR/His6 (R&D Systems, Cat. # 807-UK-100) (human, UniProt Q03405 23-303); experiment: low resolution Biacore
T4 construct: range 1-303; Bought protein; also called soluble uPAR; hu-uPAR
Experimental: (§2) A high-density goat anti-human antibody surface over a CM5 Biacore™ chip was prepared using routine amine coupling. […] Each mAb was captured on a separate flow cell using a 30-second contact time at 10 μL/min followed by a 5-minute wash at a 100 μL/min flow rate for stabilization of the mAb baseline. […] All antigen samples were prepared in the running buffer.

[3] = biological target: T5, cynomolgus monkey uPAR, cell-bound (cynomolgus monkey, UniProt Q9GK78 23-305); experiment: FACS, GeoMean; cynomolgus uPAR expressed on 293T cells; antibody concentration not given
T5 construct: whole, on cells; also called cyno-uPAR

[4] = biological target: T2, murine uPAR (form not stated); experiment: summary column Murine X-reactivity
[5] = biological target: T6, human urokinase-type plasminogen activator receptor (uPAR, CD87), cell-bound (human, UniProt Q03405 23-305); experiment: FACS competition with FITC-tc-uPA, line material
T6 construct: whole, on cells; On B300.19 or L929 transfectants (full length cDNA), or native on U937 and PC-3 cells
Text: (§3) Briefly, murine fibroblast L929 cells (ATCC) were transfected to express human uPAR.

[6] = biological target: T6, human urokinase-type plasminogen …; experiment: cell-based or functional assay
[7] = biological target: T6, human urokinase-type plasminogen …; experiment: cell-based or functional assay; remark: listed apart in the source
[8] = biological target: T6, human urokinase-type plasminogen …; experiment: FACS, U937 cells, mAb 5 µg/ml on ice, alexa647 goat anti-human F(ab), not stripped
Experimental: A cell suspension containing 100,000 cells was pipetted into each well of a V-bottom plates in duplicate. Two V-bottom plates were prepared, one to be kept at 37° C. during internalization with antibody complex, and the other to be incubated at 4° C. Each of the eight uPAR mAbs was incubated with U937 cells at 5 μg/ml on ice for 15 min. Incubation on ice was necessary to prevent internalization of the primary mAbs. The cells were then washed with cold FACS buffer. Cells were subsequently incubated on ice in 100 μl of 5 μg/ml alexa647-labelled goat anti-humanF(ab) (Invitrogen catalogue number A21249) in cold FACS buffer for 15 min. This allowed the goat FAB bind to the bound uPAR mAbs without permitting any internalization. After a 15 minute incubation on ice, one plate was kept on ice, while the other plate was incubated at 37° C. for 1 hour.
Following the 1 hr incubation with the mAb-FAB complex, the cells were washed twice with cold 5% FACS buffer, and 200 μl of Tris(2-carboxyethyl)phosphine HCl (TCEP) was added to each well as a stripping agent. The plates were both incubated with TCEP on ice for 1 hour, followed by washing and resuspending with FACS buffer. 4 μl of 7-Amino-Actinomycin D (7AAD) was added to each well, followed by 10 min incubation on ice before FACS analysis was conducted.

[9] = biological target: T4, soluble recombinant human uPAR/His6 …; experiment: low resolution Biacore, mAb captured by goat anti-human, hu-uPAR 312 nM;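 further: surface plasmon resonance on a CM5 chip with goat anti-human antibody surface made by amine coupling, each mAb from supernatant captured per flow cell, kinetics fitted including mass transport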
Experimental: as §2
A mass transport coefficient was used in fitting the data.

[10] = biological target: T1, mouse uPAR on the surface of NCTC L929 …; experiment: FACS, NCTC L929 mouse cells
Experimental: as §1

[11] = biological target: T6, human urokinase-type plasminogen …; experiment: FACS, cells expressing human uPAR, line material
[12] = biological target: T4, soluble recombinant human uPAR/His6 …; experiment: limited antigen ELISA, uPAR coat 80 ng/mL, sample 1:25
Experimental: (§4) ELISA plates were coated with a lower amount ofuPAR in comparison with the High Antigen Quantitation assay described below (320, 160, 80, 40 and 20 ng/mL). Samples containing one concentration of antibody (Ab) (1:25 dilution) were incubated overnight to allow Ab binding to approach equilibrium.

[13] = biological target: T4, soluble recombinant human uPAR/His6 …; experiment: limited antigen ELISA, uPAR coat 20 ng/mL, sample 1:25
Experimental: as §4

[14] = biological target: T6, human urokinase-type plasminogen …; experiment: FACS, B300.19 cells expressing human uPAR, anti-human gamma Cy5
[15] = biological target: T6, human urokinase-type plasminogen …; experiment: FACS competition, FITC-tc-uPA on L929 cells expressing human uPAR, supernatant 1:2
Text: as §3

[16] = biological target: T3, human Ly6e with a myc tag, expressed in …; experiment: FACS, HEK293T cells expressing Ly6e, supernatant 1:2
Experimental: The reactivity of the antibodies to the HEK293T transfected to express Ly6e was determined by FACS analysis, using 1:2 hybridoma supernatants, and probed with goat anti-human γ chain conjugated with Cy5 (2.5 mg/ml, Jackson Immune Research). Binding of an anti-myc antibody (10 μg/ml, Invitrogen) to the transfectants served as a positive control, and binding of this antibody to the (Ly6e negative) parental cells served as the negative control.

T5 sequence (Q9GK78 23-305): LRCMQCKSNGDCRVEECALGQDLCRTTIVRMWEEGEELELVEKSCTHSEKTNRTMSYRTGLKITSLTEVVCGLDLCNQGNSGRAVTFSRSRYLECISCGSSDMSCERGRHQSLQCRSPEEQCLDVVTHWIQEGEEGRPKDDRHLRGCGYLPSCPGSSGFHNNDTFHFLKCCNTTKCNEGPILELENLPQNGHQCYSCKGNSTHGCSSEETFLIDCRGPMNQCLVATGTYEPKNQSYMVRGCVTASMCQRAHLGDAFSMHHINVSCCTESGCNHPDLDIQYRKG
T6 sequence (Q03405 23-305): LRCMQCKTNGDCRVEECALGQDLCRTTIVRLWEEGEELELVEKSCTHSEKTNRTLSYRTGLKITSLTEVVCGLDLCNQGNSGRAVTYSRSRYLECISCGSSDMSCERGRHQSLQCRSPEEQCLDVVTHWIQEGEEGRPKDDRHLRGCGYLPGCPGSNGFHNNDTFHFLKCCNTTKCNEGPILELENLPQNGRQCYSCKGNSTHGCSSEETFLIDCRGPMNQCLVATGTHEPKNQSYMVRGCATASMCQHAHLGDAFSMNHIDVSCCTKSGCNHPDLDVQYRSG
T4 sequence (Q03405 other isoform, or with tags, fused parts or gaps limits assumed, form in doubt): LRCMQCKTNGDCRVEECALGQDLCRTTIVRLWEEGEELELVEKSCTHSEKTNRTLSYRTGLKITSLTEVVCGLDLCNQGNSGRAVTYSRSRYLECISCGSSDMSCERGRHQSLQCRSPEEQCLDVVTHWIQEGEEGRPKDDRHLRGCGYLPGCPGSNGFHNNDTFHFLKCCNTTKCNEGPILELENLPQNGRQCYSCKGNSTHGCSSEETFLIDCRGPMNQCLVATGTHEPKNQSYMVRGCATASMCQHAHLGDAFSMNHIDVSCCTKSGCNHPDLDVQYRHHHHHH

| X Geo Mean [1] | Kd [2] [nM] | binding result [3] | binding result [4] | Human uPAR/uPA binding inhibition (%, line material) [5] [%] | inhibition of plasminogen activation on U937 cells [6] [%] | Plasminogen activation inhibition (IC50, ug/ml) [7] [µg/mL] | geo mean cold - TCEP [8] | Kd [9] [nM] | koff [9] [s⁻¹] | kon [9] [M⁻¹ s⁻¹] | binding result [10] | Ab to cell bound Ag (line material, FACS) [11] | LA at 80 ng/ml [12] | LA at 20 ng/ml [13] | gCy5 Geo Mean Pos Cells [14] | uPA/uPAR binding Inhibition % [15] [%] | binding result [16] | Binder |
| --- | --- | --- | --- | --- | --- | --- | --- | --- | --- | --- | --- | --- | --- | --- | --- | --- | --- | --- |
| 11.7 | 3.5 | binds | no binding | 78 | > 90 | 0.066 | 42.5 | 3.5 | 0.00042 | 120000 | no binding (tested: 6.25 µg/ml) | 514 |  |  |  |  |  | anti-uPAR monoclonal antibody 1.99.1 (antibody, V domains shown) VH: EVQLVESGGGLIQPGGSLRLSCAASGFTVRSNYMSWVRQAPGKGLEWISVIYTGGSTYYADSVKGRFSISRDNSKNTLYLQMNSLRAEDTAVYYCAREGAVAGFDYWGQGTLVTVSS VL: EIVMTQSPATLSVSPGERATLSCRASQSISSNLAWYQQKPGQAPRLLIYGASTRATGIPARFSGSGSGTEFTLTISSLQSEDFAVYYCQQYTNWPLTFGGGTKVEIK |
| 9.59 | 2.7 | binds | no binding | 77 | > 90 | 0.056 | 46 | 2.7 | 0.00032 | 120000 | no binding (tested: 6.25 µg/ml) |  | 1.03 | 0.16 | 412 | 77 | no binding (tested: GeoMean ratio 1.95) | anti-uPAR monoclonal antibody 4.19.1 (antibody, V domains shown) VH: EVQLVESGGGLIQPGGSLRLSCAASGFSVSSNYMNWVRQAPGKGLEWVSVIYTGGSTYYADSVKGRFTISRDNSKNTLYLQMNSLRAEDTAVYYCARDTYLYGMDVWGQGTTVTVSS VL: EIVMTQSPATLSVSPGESATLSCRTSQSVSSNLAWYQQKPGQTPRLLIYGASARATGVPARFSGSGSGTEFTLTISSLQSEDFAVYYCQQYYNWPLTFGGGTKVEIK |
| 8.92 | 2.2 | binds | no binding | 67 | > 90 | 0.104 | 42.1 | 2.2 | 0.00026 | 120000 | no binding (tested: 6.25 µg/ml) |  | 0.64 | 0.21 | 402 | 67 | binds | anti-uPAR monoclonal antibody 4.50.1 (antibody, V domains shown, also called 4.50.2) VH: QVQLVESGGGVVQPGRSLRLSCAASGFTFSSYGMHWVRQAPGKGLEWVAVIWYDGSNKDYADSVKGRFTISRDNSKNTLYLQMNSLRAEDTAVYYCARDMIVVVITYAFDIWGQGTMVTVSS VL: not shown |
| 8.97 | 20.6 | binds | no binding | 71 | > 90 | 0.067 | 33.4 | 20.6 | 0.0013 | 63000 | no binding (tested: 6.25 µg/ml) |  | 0.21 | 0.06 | 317 | 71 | no binding (tested: GeoMean ratio 1.95) | anti-uPAR monoclonal antibody 4.12.1 (antibody, V domains shown) VH: EVQLVESGGGLVQPGGSLRLSCAASGFTFSSYWMSWVRQAPGTGLDWVANINQDGSERYYVDSVKGRFTISRDNAKNSPHLQMNSLRAEDTAVYYCAREGSGGRYGGWYFDLWGRGTLVTVSS VL: not shown |
